Common to all, as to conditions: co-substrate O2, 30 °C
Data set [1] concerns N3-GOX. Nature of the data set: O2 consumption, Hansatech oxygen electrode, nonlinear Michaelis-Menten fit. The class given is biochemical, synthetic construct. The source says:
O2 consumption, Hansatech oxygen electrode, nonlinear Michaelis-Menten fit on N3-GOX

Substrate in data set [2]: C[C@H](O)C(=O)O
Nature of the data set: purified protein.

Substrate in data set [3]: O=C(O)CO
Nature of the data set: purified protein.

Where two headings read alike, the source gives them in different places.

Turning to `C[C@H](O)C(=O)O` [L-lactate], the Km in data set [1] (read-out: L-Lactate / Km) stood at 13.7 ± 1.93 mM.

With `O=C(O)CO` [glycolate], the Km in data set [1] (read-out: Glycolate / Km) stood at 11.8 ± 0.61 mM.

B1: Cp-GOXc (Cyanophora paradoxa) (protein)
chain: MQPLSAQALAQYRAAAPMDPVNVMEYQMVAKEKLPKMVYDYYASGADDQWTLQEARSAFERITFRPRVLVDVSVQDMSTTILGQKVAFPICVAPTAMQCMATGQGEKATSRAVASMNTLMTLSSWSTTPLEEVAKAAPHGARWFQLYVYKDRACTERLVRRAQAAGYKALCLTVDTPRLGRRENDVKNRFHLPDGLTMGNFLDLVQAEMPTDQKDSGLAAYVASLIDPTLNWKDVEWLKTITNLPIVVKGVLTAEDALMAVKHGCAGIVVSNHGARQLDYSPATIDVLEEVVNAVRGYPIEVYLDGGVRRGTDALKALALGARAVFVGRPVVWGLAAGGEEGVRKVLTMLRDEFKLGLALLGCQSLKDINRSMVVTPADRAKTAVRARL
Consider B1, for which the Km is listed as 9.27 ± 1.44 mM in data set [2] and 0.38 ± 0.05 mM in data set [3]. Further, the Vmax in data set [2] stood at 6.94 µmol/min/mg; in data set [3] it was 8.98 µmol/min/mg.

B2: Sp-GOX (Spirogyra pratensis) (protein)
chain: MSSEVVNVTEFQAIAKQKLPKQTYDYYASGAEDEWSLRENRNAFERITFRPRILIDVSKIDLTTSVLGYRLSMPIMVAPTAMQKMAHPDGELATARAATSMNTAMTLSSWATSSVEEVSSTGPGLRFFQLYVYKNRDVVLQLVRRAEKAGFKAIALTVDTPRLGRREADIRNKFVLPPGLTLKNFEGLDLGKMDQTEDSGLASYVAGQIDRSLSWKDVKWLQSVTSMPILVKGVITGEDAKIAVECGASGIIVSNHGARQLDYVSSTINALEEVVKATAGRIPVFLDGGVRRGTDVLKALALGAKGVFVGRPVVFALASDGEAGVKKCLQMLRDEFELAMALAGCTKISDINRSLVQTEGDRIRMAARL
For the molecule B2, in data set [2], the Km is on record as 15.52 ± 4.55 mM and the maximum rate (Vmax) is 24.2 µmol/min/mg. For the same molecule, in data set [3], the Km was determined as 0.94 ± 0.12 mM and the Vmax was 28.1 µmol/min/mg.

As usually defined, the Vmax is the top rate of the reaction or transport when substrate is in excess.

The values are drawn from publication PMC7020209 (Plants, 2020).
